# Values quoted from earlier work as cited in US10472401B2, “Peptides and combination of peptides for use in immunotherapy against ovarian cancer and other cancers” (immatics biotechnologies GmbH, priority 2015, dated 2019).
# B1: abagovomab (antibody, chains of the INN, looked up, V domains shown)
# VH: QVKLQESGAELARPGASVKLSCKASGYTFTNYWMQWVKQRPGQGLDWIGAIYPGDGNTRYTHKFKGKATLTADKSSSTAYMQLSSLASEDSGVYYCARGEGNYAWFAYWGQGTTVTVSS
# VL: DIELTQSPASLSASVGETVTITCQASENIYSYLAWHQQKQGKSPQLLVYNAKTLAGGVSSRFSGSGSGTHFSLKIKSLQPEDFGIYYCQHHYGILPTFGGGTKLEIK
# notes: anti-CA-125 antibody
# Test system: ovarian cancer
# Details: clinical studies
molecule,measurement,value
B1,clinical results in ovarian cancer patients,promising results in phase II and III studies
